Results on 10 variants are retold here after IntAct's records for PubMed 10449590.

The chains are these.
B1: 14-3-3 protein epsilon (Homo sapiens), P62258 (parent)
chain: MDDREDLVYQAKLAEQAERYDEMVESMKKVAGMDVELTVEERNLLSVAYKNVIGARRASWRIISSIEQKEENKGGEDKLKMIREYRQMVETELKLICCDILDVLDKHLIPAANTGESKVFYYKMKGDYHRYLAEFATGNDRKEAAENSLVAYKAASDIAMTELPPTHPIRLGLALNFSVFYYEILNSPDRACRLAKAAFDDAIAELDTLSEESYKDSTLIMQLLRDNLTLWTSDMQGDGEEQNKEALQDVEDENQ
B2: Transcription initiation factor IIB (Homo sapiens), Q00403 (parent)
chain: MASTSRLDALPRVTCPNHPDAILVEDYRAGDMICPECGLVVGDRVIDVGSEWRTFSNDKATKDPSRVGDSQNPLLSDGDLSTMIGKGTGAASFDEFGNSKYQNRRTMSSSDRAMMNAFKEITTMADRINLPRNIVDRTNNLFKQVYEQKSLKGRANDAIASACLYIACRQEGVPRTFKEICAVSRISKKEIGRCFKLILKALETSVDLITTGDFMSRFCSNLCLPKQVQMAATHIARKAVELDLVPGRSPISVAAAAIYMASQASAEKRTQKEIGDIAGVADVTIRQSYRLIYPRAPDLFPTDFKFDTPVDKLPQL
partner: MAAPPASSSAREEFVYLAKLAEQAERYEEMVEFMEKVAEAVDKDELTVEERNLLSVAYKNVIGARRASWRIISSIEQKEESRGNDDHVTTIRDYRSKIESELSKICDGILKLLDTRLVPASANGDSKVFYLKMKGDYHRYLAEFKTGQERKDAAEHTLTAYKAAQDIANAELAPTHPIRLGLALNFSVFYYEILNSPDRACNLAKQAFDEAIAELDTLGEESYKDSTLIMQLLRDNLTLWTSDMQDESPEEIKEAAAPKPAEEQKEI
B3: 14-3-3-like protein GF14 phi (Arabidopsis thaliana (Mouse-ear cress)), P46077 (parent)
chain: B2 partner
partner: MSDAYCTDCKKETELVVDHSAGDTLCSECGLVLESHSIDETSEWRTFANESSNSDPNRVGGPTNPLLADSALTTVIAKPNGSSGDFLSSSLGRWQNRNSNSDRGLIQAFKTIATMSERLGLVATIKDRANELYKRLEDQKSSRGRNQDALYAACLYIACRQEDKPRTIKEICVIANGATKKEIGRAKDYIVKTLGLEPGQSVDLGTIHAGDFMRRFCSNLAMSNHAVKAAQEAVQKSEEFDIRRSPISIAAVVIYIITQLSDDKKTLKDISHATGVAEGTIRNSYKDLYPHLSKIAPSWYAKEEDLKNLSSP
B4: 14-3-3-like protein GF14 phi (Arabidopsis thaliana (Mouse-ear cress)), P46077 (parent)
chain: B2 partner
partner: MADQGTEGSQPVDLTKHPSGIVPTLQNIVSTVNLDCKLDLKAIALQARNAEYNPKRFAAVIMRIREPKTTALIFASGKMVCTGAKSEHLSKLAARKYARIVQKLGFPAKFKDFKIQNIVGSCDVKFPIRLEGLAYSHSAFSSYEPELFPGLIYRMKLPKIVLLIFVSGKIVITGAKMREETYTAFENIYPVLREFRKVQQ

In the first experiment the parent is B1. As to conditions: with tbp_human TBP.
For MDDREDLVYQAKLAEQAERYDEMVESMKKVAGMDVELTVEERNLLSVAYKNVIGARRASWRIISSIEQKEENKGGEDKLKMIREYRQMVETELKLICCDILDVLDKHLIPAANTGESKVFYYKMKGDYHRYLAEFATGNDRKEAAENSLVAYKAASDIAMTELPPTHPIRLGLALNAAVFYYEILNSPDRACRLAKAAFDDAIAELDTLSEESYKDSTLIMQLLRDNLTLWTSDMQGDGEEQNKEALQDVEDENQ [F177A;S178A], the “effect of a mutation on the interaction” value is “disrupting interaction”.

Turning to MDDREDLVYQAKLAEQAERYDEMVESMKKVAGMDVELTVEERNLLSVAYKNVIGARRASWRIISSIEQKEENKGGEDKLKMIREYRQMVETELKLICCDILDVLDKHLIPAANTGESKVFYYKMKGDYHRYLAEFATGNDRKEAAENSLVAYKAASDIAMTELPPTHPIRLGLAAAFSVFYYEILNSPDRACRLAKAAFDDAIAELDTLSEESYKDSTLIMQLLRDNLTLWTSDMQGDGEEQNKEALQDVEDENQ [L175A;N176A], the “effect of a mutation on the interaction” value is reported as “decreasing interaction”.

MDDREDLVYQAKLAEQAERYDEMVESMKKVAGMDVELTVEERNLLSVAYKNVIGARRASWRIISSIEQKEENKGGEDKLKMIREYRQMVETELKLICCDILDVLDKHLIPAANTGESKVFYYKMKGDYHRYLAEFATGNDRKEAAENSLVAYKAASDIAMTELPPTHPIRLGLALNFSAAYYEILNSPDRACRLAKAAFDDAIAELDTLSEESYKDSTLIMQLLRDNLTLWTSDMQGDGEEQNKEALQDVEDENQ [V179A;F180A]: the “effect of a mutation on the interaction” value was “decreasing interaction”.

The variants in the next experiment derive from B2. The conditions noted are these: with 14334_arath GRF4, P46077.
Consider MASTSRLDALPRVTCPNHPDAILVEDYRAGDMICPECGLVVGDRVIDVGSEWRTFSNDKATKDPSRVGDSQNPLLSDGDLSTMIGKGTGAASFDEFGNSKYQNRRTMSSSDRAMMNAFKEITTMADRINLPRNIVDRTNNLFKQVYEQKSLKGRANDAIASACLYIACRQEGVPRTFKEICAVSEISKKEIGECFKLILKALETSVDLITTGDFMSRFCSNLCLPKQVQMAATHIARKAVELDLVPGRSPISVAAAAIYMASQASAEKRTQKEIGDIAGVADVTIRQSYRLIYPRAPDLFPTDFKFDTPVDKLPQL [R185E;R193E], for which the “effect of a mutation on the interaction” value is “decreasing interaction”.

Another experiment covers variants of B3. As to conditions: with tf2b1_arath TFIIB1, P48512.
With MAAPPASSSAREEFVYLAKLAEQAERYEEMVEFMEKVAEAVDKDELTVEERNLLSVAYKNVIGARRASWRIISSIEQKEESRGNDDHVTTIRDYRSKIESELSKICDGILKLLDTRLVPASANGDSKVFYLKMKGDYHRYLAEFKTGQERKDAAEHTLTAYKAAQDIANAELAPTHPIRLGLALNAAVFYYEILNSPDRACNLAKQAFDEAIAELDTLGEESYKDSTLIMQLLRDNLTLWTSDMQDESPEEIKEAAAPKPAEEQKEI [F186A;S187A], the “effect of a mutation on the interaction” value is given as “disrupting interaction”.

With MAAPPASSSAREEFVYLAKLAEQAERYEEMVEFMEKVAEAVDKDELTVEERNLLSVAYKNVIGARRASWRIISSIEQKEESRGNDDHVTTIRDYRSKIESELSKICDGILKLLDTRLVPASANGDSKVFYLKMKGDYHRYLAEFKTGQERKDAAEHTLTAYKAAQDIANAELAPTHPIRLGLAAAFSVFYYEILNSPDRACNLAKQAFDEAIAELDTLGEESYKDSTLIMQLLRDNLTLWTSDMQDESPEEIKEAAAPKPAEEQKEI [L184A;N185A], the “effect of a mutation on the interaction” value is given as “decreasing interaction”.

MAAPPASSSAREEFVYLAKLAEQAERYEEMVEFMEKVAEAVDKDELTVEERNLLSVAYKNVIGARRASWRIISSIEQKEESRGNDDHVTTIRDYRSKIESELSKICDGILKLLDTRLVPASANGDSKVFYLKMKGDYHRYLAEFKTGQERKDAAEHTLTAYKAAQDIANAELAPTHPIRLGLALNFSAAYYEILNSPDRACNLAKQAFDEAIAELDTLGEESYKDSTLIMQLLRDNLTLWTSDMQDESPEEIKEAAAPKPAEEQKEI [V188A;F189A]: the “effect of a mutation on the interaction” value is on record as “decreasing interaction”.

In the next experiment the parent is B4. As to conditions: with tbp2_arath TBP2, P28148.
In the case of MAAPPASSSAREEFVYLAKLAEQAERYEEMVEFMEKVAEAVDKDELTVEERNLLSVAYKNVIGARRASWRIISSIEQKEESRGNDDHVTTIRDYRSKIESELSKICDGILKLLDTRLVPASANGDSKVFYLKMKGDYHRYLAEFKTGQERKDAAEHTLTAYKAAQDIANAELAPTHPIRLGLALNFSAAYYEILNSPDRACNLAKQAFDEAIAELDTLGEESYKDSTLIMQLLRDNLTLWTSDMQDESPEEIKEAAAPKPAEEQKEI [V188A;F189A], the “effect of a mutation on the interaction” value is “decreasing interaction”.

Take MAAPPASSSAREEFVYLAKLAEQAERYEEMVEFMEKVAEAVDKDELTVEERNLLSVAYKNVIGARRASWRIISSIEQKEESRGNDDHVTTIRDYRSKIESELSKICDGILKLLDTRLVPASANGDSKVFYLKMKGDYHRYLAEFKTGQERKDAAEHTLTAYKAAQDIANAELAPTHPIRLGLAAAFSVFYYEILNSPDRACNLAKQAFDEAIAELDTLGEESYKDSTLIMQLLRDNLTLWTSDMQDESPEEIKEAAAPKPAEEQKEI [L184A;N185A]: the “effect of a mutation on the interaction” value is recorded as “decreasing interaction”.

Turning to MAAPPASSSAREEFVYLAKLAEQAERYEEMVEFMEKVAEAVDKDELTVEERNLLSVAYKNVIGARRASWRIISSIEQKEESRGNDDHVTTIRDYRSKIESELSKICDGILKLLDTRLVPASANGDSKVFYLKMKGDYHRYLAEFKTGQERKDAAEHTLTAYKAAQDIANAELAPTHPIRLGLALNAAVFYYEILNSPDRACNLAKQAFDEAIAELDTLGEESYKDSTLIMQLLRDNLTLWTSDMQDESPEEIKEAAAPKPAEEQKEI [F186A;S187A], the “effect of a mutation on the interaction” value is given as “disrupting interaction”.
